The source of these data is the supplement of paper PMC12764529.

± gives the half width of the 95% confidence interval.

The nature of series [1]: folding stability dG unfold (combined trypsin and chymotrypsin); higher = more stable. The essentials:
(§1)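 K50 was inferred by Bayesian fitting of sequencing counts obtained after protease digestion of designed mini-proteins. Unfolding free energy was derived by comparison with a sequence-predicted unfolded-state K50 and a shared folded-state K50, for each protease or both combined. The mini-proteins were under 80 residues, had no cysteine, were carried in a PA-tagged cDNA display construct, and were kept only if AlphaFold2 dimer inter-PAE exceeded 15.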

The nature of series [2]: folding stability dG unfold from trypsin proteolysis; higher = more stable. The essentials: as §1
Series [3] in a line: folding stability dG unfold from chymotrypsin proteolysis; higher = more stable. The essentials: as §1

Regarding “SAGGSAGGKEVKIEIYDSDDGILLVEVPDLDDAVEAVEKLGVELELVPYDPEKGRLLLRLRIPGSAGGSAGG [r6_510_TrMRF]”, the results for the “folding stability dG unfold” value in series [1], in series [2] and in series [3] were 0.64 ± 0.16 kcal/mol, 0.26 ± 0.21 kcal/mol and 0.8 ± 0.2 kcal/mol, respectively.
For the sequence “SAGGSAGGKGGKPKIKLEPINTNPNGWQTFRFEVTPEAIDDLMDDFPNVQVERHPGEMYITVRNSAGGSAGG [r6_395_TrROS]”, the “folding stability dG unfold” value is -0.104 ± 0.23 kcal/mol in series [1], -0.418 ± 0.56 kcal/mol in series [2] and -0.0427 ± 0.39 kcal/mol in series [3].
Consider “SAGGSAGGKIAVIPYVPEEDIPPELRELFGKEGSLSPEEFQELFAEAVARELGEEGAIDAVIVESAGGSAGG [r6_654_TrMRF]”, for which the “folding stability dG unfold” value came to 0.778 ± 0.15 kcal/mol in series [1], 0.618 ± 0.032 kcal/mol in series [2] and 0.721 ± 0.037 kcal/mol in series [3].
On the same counts, the results for “SAGGSAGGKIEEIAKKLNLEVESIEYDKETKKVTVTIKVNGKLYKIEIYVENGKIVKIKIEELPSAGGSAGG [r6_373_TrROS_Hall]” are 4.01 ± 0.23 kcal/mol, 3.3 ± 0.2 kcal/mol and 4.3 ± 0.25 kcal/mol.
As for “SAGGSAGGKIIINGKEIEPGETITLPNGLKLEVVDGKIKLVVRDEETGEEKEITLSAEELKKLLSAGGSAGG [r6_940_TrROS_Hall]”, the “folding stability dG unfold” value in series [1] is 3.09 ± 0.061 kcal/mol; in series [2], 2.65 ± 0.12 kcal/mol; in series [3], 3.26 ± 0.086 kcal/mol.
On to “SAGGSAGGKILVIEIEVDSPEKAVEKAKEIVKELGLPESVKIKEIVFFKEEGDKYRALVLVDLDSAGGSAGG [r6_282_TrMRF]”, for which the “folding stability dG unfold” value in series [1] stood at 3.95 ± 0.2 kcal/mol; in series [2], 3.66 ± 0.23 kcal/mol; in series [3], 4.09 ± 0.095 kcal/mol.
On the same counts, the results for “SAGGSAGGKIRVEVEVEPLPGPEEGGRLLRVRVRVYNENGELLEEIEFPARSPEEAEERLRKAASAGGSAGG [r6_974_TrMRF]” are 3.15 ± 0.14 kcal/mol, 2.05 ± 0.044 kcal/mol and 3.46 ± 0.082 kcal/mol.
On to “SAGGSAGGKITINGKEYEIVEVKYDKETNTLHFLIKNKDGTLLKISISPNGKIEIKEVPAEELLSAGGSAGG [r6_699_TrROS_Hall]”, for which the entries for the “folding stability dG unfold” value in series [1], in series [2] and in series [3] were 3.78 ± 0.23 kcal/mol, 3.41 ± 0.23 kcal/mol and 3.74 ± 0.12 kcal/mol, respectively.
For “SAGGSAGGKKEIKIYLVSDLPEEDAIETAEKIKKGLAEELGVSPEELNITVEVAILDPENLELNPESAGGSA [r15_918_TrMRF]”, in that order: 0.1 ± 0.15 kcal/mol, 0.179 ± 0.049 kcal/mol and 0.0161 ± 0.048 kcal/mol.
For “SAGGSAGGKKIEMKIIKNEDGTKLIVFKSKEEAEEALKKAGYEVKIVSVNEEKGYVVIEIRKKKSAGGSAGG [r6_510_TrROS_Hall]”, in that order: 1.9 ± 0.072 kcal/mol, 1.17 ± 0.043 kcal/mol and 2.21 ± 0.04 kcal/mol.
In the case of “SAGGSAGGKKKKKPPKKKYFYVEIEIELTPEEIEKLKELFPDVKVEVEEKDGKLRVRITVRVKLSAGGSAGG [r6_685_TrROS_Hall]”, the “folding stability dG unfold” value in series [1] was determined as 3.26 ± 0.087 kcal/mol; in series [2] it was 2.79 ± 0.16 kcal/mol; in series [3], 3.48 ± 0.05 kcal/mol.
Take “SAGGSAGGKKKVIEITVKITLFNENGEEVATFEAKITIIEDKETKEYYAVITFKDGSTLVIKLPSAGGSAGG [r6_923_TrROS_Hall]”: the results for the “folding stability dG unfold” value in series [1], in series [2] and in series [3] were 4.87 ± 0.47 kcal/mol, 3.69 ± 0.2 kcal/mol and 5.12 ± 0.2 kcal/mol, respectively.
On the same counts, the results for “SAGGSAGGKKKYRALITLRSKDGKPIAPIEIETDSPEELLKTAKKIIEEATKENEPVEIKVEEYSAGGSAGG [r6_285_TrMRF]” are 1.59 ± 0.11 kcal/mol, 1.09 ± 0.054 kcal/mol and 1.8 ± 0.093 kcal/mol.
On the same counts, the results for “SAGGSAGGKKVIVKIKIKVKDKETGEEKEIEITLEFETEEEAKAAIEALKALPPGVEIKIELLPSAGGSAGG [r6_999_TrROS_Hall]” are 4.19 ± 0.28 kcal/mol, 4.42 ± 0.21 kcal/mol and 2.72 ± 0.097 kcal/mol.
As for “SAGGSAGGKKYRVVVYNPETGEWVEVEEVEFDPETGEVRVRLPGSGKEVTIPKDYPVYLNPELDSAGGSAGG [r6_884_TrMRF]”, the “folding stability dG unfold” value was 2.9 ± 0.045 kcal/mol in series [1], 2.21 ± 0.035 kcal/mol in series [2] and 3.163 ± 0.03 kcal/mol in series [3].
For “SAGGSAGGKLKKFKIKEIKIEKNKETNTYTVTITLENGEKLTITAKSKEDAEKALRKLKEAGLLSAGGSAGG [r6_65_TrROS_Hall]”, in that order: 3.02 ± 0.2 kcal/mol, 2.81 ± 0.086 kcal/mol and 3.39 ± 0.098 kcal/mol.
For “SAGGSAGGKLSIPIHIPGLTPEEARKIVKYFAAAGIPPDNVTIEVQPVPPVPPMTPEEMEKHNKSAGGSAGG [r6_246_TrROS]”, in that order: 0.614 ± 0.2 kcal/mol, -0.288 ± 0.24 kcal/mol and 0.988 ± 0.13 kcal/mol.
On the same counts, the results for “SAGGSAGGKPEVKITLVIEVETEEELKALAEELAALLGAEVEVRVERREDGRLLVTVTITVPAESAGGSAGG [r6_719_TrROS_Hall]” are 2.97 ± 0.096 kcal/mol, 3.28 ± 0.14 kcal/mol and 2.77 ± 0.12 kcal/mol.
